{
  "source": "the supplement of paper PMC10567573",
  "parents": {"B1": {"name": "KLHDC10 (parent)", "chain": "FGGTGIPFGESNGNGVHVCNVKYK"}, "B2": {"name": "STK38L (parent)", "chain": "FLPGGDMMTLLMKKDTLTEEETQF"}},
  "data": [
    {"variants_of": "B1", "assay": "protein stability index of a GFP-peptide fusion (GPS, HEK-293T) (PSI 1-6); higher = more stable", "details": "c terminus: a fixed tail appended", "values": [
      {"variant": "FGGTGIPFGESNMNGVHVCNVKYK", "protein stability index": 2.73},
      {"variant": "FGGTGIPFGESNANGVHVCNVKYK", "protein stability index": 2.02},
      {"variant": "FGGTGIPFGESNSNGVHVCNVKYK", "protein stability index": 1.92},
      {"variant": "FGGTGIPFGESNHNGVHVCNVKYK", "protein stability index": 1.77},
      {"variant": "FGGTGIPFGESNINGVHVCNVKYK", "protein stability index": 1.38},
      {"variant": "FGGTGVPFGESNGNGVHVCNVKYK", "protein stability index": 2.16},
      {"variant": "FGGTGQPFGESNGNGVHVCNVKYK", "protein stability index": 2.27},
      {"variant": "FGGTGRPFGESNGNGVHVCNVKYK", "protein stability index": 1.72},
      {"variant": "FGGTGHPFGESNGNGVHVCNVKYK", "protein stability index": 2.08},
      {"variant": "FGGTGWPFGESNGNGVHVCNVKYK", "protein stability index": 2.27},
      {"variant": "FGGTGMPFGESNGNGVHVCNVKYK", "protein stability index": 2.07},
      {"variant": "FGGTGEPFGESNGNGVHVCNVKYK", "protein stability index": 3.02},
      {"variant": "FGGTGNPFGESNGNGVHVCNVKYK", "protein stability index": 2.07},
      {"variant": "FGGTGIPFGESNGNVVHVCNVKYK", "protein stability index": 1.9},
      {"variant": "FGGTGIPFGESNGNKVHVCNVKYK", "protein stability index": 2.1},
      {"variant": "FGGTGIPFGESNGNIVHVCNVKYK", "protein stability index": 1.77},
      {"variant": "FGGTGIPFGESNGNWVHVCNVKYK", "protein stability index": 1.62},
      {"variant": "FGGTGIPFGESNGNSVHVCNVKYK", "protein stability index": 2.14},
      {"variant": "FGGTGIPFGESNGNDVHVCNVKYK", "protein stability index": 2.3},
      {"variant": "FGGTGIPFGESNGNTVHVCNVKYK", "protein stability index": 1.92},
      {"variant": "FGGTGIPFGESNGNNVHVCNVKYK", "protein stability index": 1.52},
      {"variant": "FGGTGIPFGESNGNAVHVCNVKYK", "protein stability index": 1.59},
      {"variant": "FGGTGIPFGESNGNYVHVCNVKYK", "protein stability index": 1.42},
      {"variant": "FGGTGIPFGESNGNLVHVCNVKYK", "protein stability index": 1.73},
      {"variant": "FGGTGIAFGESNGNGVHVCNVKYK", "protein stability index": 1.41},
      {"variant": "FGGTGIHFGESNGNGVHVCNVKYK", "protein stability index": 2.13},
      {"variant": "FGGTGILFGESNGNGVHVCNVKYK", "protein stability index": 3.6},
      {"variant": "FGGTGINFGESNGNGVHVCNVKYK", "protein stability index": 2.4},
      {"variant": "FGGTGITFGESNGNGVHVCNVKYK", "protein stability index": 2.33},
      {"variant": "FGGTGIQFGESNGNGVHVCNVKYK", "protein stability index": 2.06},
      {"variant": "FGGTGIKFGESNGNGVHVCNVKYK", "protein stability index": 2.01},
      {"variant": "FGGTGIYFGESNGNGVHVCNVKYK", "protein stability index": 2.5},
      {"variant": "FGGTGIRFGESNGNGVHVCNVKYK", "protein stability index": 2.07},
      {"variant": "FGGTGISFGESNGNGVHVCNVKYK", "protein stability index": 2.14},
      {"variant": "FGGTNIPFGESNGNGVHVCNVKYK", "protein stability index": 2.87},
      {"variant": "FGGTRIPFGESNGNGVHVCNVKYK", "protein stability index": 2},
      {"variant": "FGGTEIPFGESNGNGVHVCNVKYK", "protein stability index": 3.42},
      {"variant": "FGGTKIPFGESNGNGVHVCNVKYK", "protein stability index": 1.52},
      {"variant": "FGGTTIPFGESNGNGVHVCNVKYK", "protein stability index": 2.18},
      {"variant": "FGGTWIPFGESNGNGVHVCNVKYK", "protein stability index": 2.69},
      {"variant": "FGGTGIPFGESNGNGVHVCNVQYK", "protein stability index": 2.89},
      {"variant": "FGGTGIPFGESNGNGVHVCNVTYK", "protein stability index": 1.98},
      {"variant": "FGGTGIPFGESNGNGVHVCNVRYK", "protein stability index": 2.34},
      {"variant": "FGGTGIPFGESNGNGVHVCNVPYK", "protein stability index": 1.91},
      {"variant": "FGGTGIPFGESNGNGVHVCNVDYK", "protein stability index": 2.35},
      {"variant": "FGGTGIPFGESNGNGVHVCNVNYK", "protein stability index": 1.8},
      {"variant": "FGGTGIPFGESNGNGVHVCNVHYK", "protein stability index": 2.07},
      {"variant": "FGGTGIPFGESNGNGVHVCNVSYK", "protein stability index": 1.29},
      {"variant": "FGGTGIPFGESNGNGVHVCNVCYK", "protein stability index": 1.24},
      {"variant": "FGGTGIPFGESNGNGVHVCNVMYK", "protein stability index": 1.9},
      {"variant": "FGGTGIPFGESNGNGVHVCNVAYK", "protein stability index": 2.53},
      {"variant": "FGGTGIPFGESIGNGVHVCNVKYK", "protein stability index": 1.58},
      {"variant": "FGGTGIPFGESWGNGVHVCNVKYK", "protein stability index": 1.74},
      {"variant": "FGGTGIPFGESLGNGVHVCNVKYK", "protein stability index": 1.87},
      {"variant": "FGGTGIPFGESRGNGVHVCNVKYK", "protein stability index": 1.51},
      {"variant": "FGGTGIPFGESKGNGVHVCNVKYK", "protein stability index": 1.82},
      {"variant": "FGGTGIPFGESTGNGVHVCNVKYK", "protein stability index": 1.97},
      {"variant": "FGGTGIPFGESFGNGVHVCNVKYK", "protein stability index": 1.41},
      {"variant": "FGGTGIPFGESDGNGVHVCNVKYK", "protein stability index": 2.33},
      {"variant": "FGGTGIPFGESMGNGVHVCNVKYK", "protein stability index": 1.9},
      {"variant": "FGGTGIPFGESNGNGVHVCNGKYK", "protein stability index": 1.78},
      {"variant": "FGGTGIPFGESNGNGVHVCNHKYK", "protein stability index": 1.7},
      {"variant": "FGGTGIPFGESNGNGVHVCNTKYK", "protein stability index": 2.17},
      {"variant": "FGGTGIPFGESNGNGVHVCNSKYK", "protein stability index": 2.38},
      {"variant": "FGGTGIPFGESNGNGVHVCNMKYK", "protein stability index": 1.95},
      {"variant": "FGGTGIPFGESNGNGVHVCNFKYK", "protein stability index": 1.82},
      {"variant": "FGGTGIPFGESNGNGVHVCNNKYK", "protein stability index": 2.54},
      {"variant": "FGGTGIPFGESNGNGVGVCNVKYK", "protein stability index": 1.63},
      {"variant": "FGGTGIPFGESNGNGVYVCNVKYK", "protein stability index": 1.52},
      {"variant": "FGGTGIPFGESNGNGVSVCNVKYK", "protein stability index": 3.15},
      {"variant": "FGGTGIPFGESNGNGVNVCNVKYK", "protein stability index": 2.03},
      {"variant": "FGGTGIPFGESNGNGVDVCNVKYK", "protein stability index": 2.54},
      {"variant": "FGGTGIPFGESNGNGVTVCNVKYK", "protein stability index": 2.22},
      {"variant": "FGGTGIPFGESNGNGVQVCNVKYK", "protein stability index": 2.45}
    ]},
    {"variants_of": "B2", "assay": "protein stability index of a GFP-peptide fusion (GPS, HEK-293T) (PSI 1-6); higher = more stable", "details": "c terminus: a fixed tail appended", "values": [
      {"variant": "FLPGGDMMTLLMKKDTLTEEETQI", "protein stability index": 2.77},
      {"variant": "FLPGGDMMTLLMKKDTLTEEETQC", "protein stability index": 1.77},
      {"variant": "FLPGGDMMTLLMKKDTLTEEETQK", "protein stability index": 2.53},
      {"variant": "FLPGGDMMTLLMKKDTLTEEETQP", "protein stability index": 2.64},
      {"variant": "FLPGGDMMTLLMKKDTLTEEETQR", "protein stability index": 2.09},
      {"variant": "FLPGGDMMTLLMKKDTLTEEETQA", "protein stability index": 2.28},
      {"variant": "FLPGGDMMTLLMKKDTLTEEETQL", "protein stability index": 3.02},
      {"variant": "FLPGGDMMTLLMKKDTLTEEETQG", "protein stability index": 2.84},
      {"variant": "FLPGGDMMTLLMKKDTLTEEETQT", "protein stability index": 2.42},
      {"variant": "FLPGGDMMTLLMKKDTLTEEETQM", "protein stability index": 2.4},
      {"variant": "FLPGGDMMTLLMKKDTLTEEETQV", "protein stability index": 2.65},
      {"variant": "FLPGGDMMTLLMKKDTLTEEETQN", "protein stability index": 2.65},
      {"variant": "FLPGGDMMTLLMKKDTLTEEETQH", "protein stability index": 2.44},
      {"variant": "FLPGGDMMTLLMKKDTLTEEETQS", "protein stability index": 2.19},
      {"variant": "FLPGGDMMTLLMKKDTLTEEETQE", "protein stability index": 2.35},
      {"variant": "FLPGGDMMTLLMKKDTLTEEETQY", "protein stability index": 2.52},
      {"variant": "FLPGGDMMTLLMKKDTLTEEETQQ", "protein stability index": 2.58},
      {"variant": "FLPGGDMMTLLMKKDTLTEEETQW", "protein stability index": 2.09},
      {"variant": "FLPGGDMMTLLMKKDTLTEEETQD", "protein stability index": 2.97},
      {"variant": "FLPGGDMMTLLMKKDTLTEEETYF", "protein stability index": 1.88}
    ]}
  ]
}
